Results taken from patent publication US20090286721A1 (published 2009).

T1: P-selectin on thrombin-activated human platelets (human, UniProt P16109 42-830)
T1 construct: whole, on cells
T1 sequence (looked up): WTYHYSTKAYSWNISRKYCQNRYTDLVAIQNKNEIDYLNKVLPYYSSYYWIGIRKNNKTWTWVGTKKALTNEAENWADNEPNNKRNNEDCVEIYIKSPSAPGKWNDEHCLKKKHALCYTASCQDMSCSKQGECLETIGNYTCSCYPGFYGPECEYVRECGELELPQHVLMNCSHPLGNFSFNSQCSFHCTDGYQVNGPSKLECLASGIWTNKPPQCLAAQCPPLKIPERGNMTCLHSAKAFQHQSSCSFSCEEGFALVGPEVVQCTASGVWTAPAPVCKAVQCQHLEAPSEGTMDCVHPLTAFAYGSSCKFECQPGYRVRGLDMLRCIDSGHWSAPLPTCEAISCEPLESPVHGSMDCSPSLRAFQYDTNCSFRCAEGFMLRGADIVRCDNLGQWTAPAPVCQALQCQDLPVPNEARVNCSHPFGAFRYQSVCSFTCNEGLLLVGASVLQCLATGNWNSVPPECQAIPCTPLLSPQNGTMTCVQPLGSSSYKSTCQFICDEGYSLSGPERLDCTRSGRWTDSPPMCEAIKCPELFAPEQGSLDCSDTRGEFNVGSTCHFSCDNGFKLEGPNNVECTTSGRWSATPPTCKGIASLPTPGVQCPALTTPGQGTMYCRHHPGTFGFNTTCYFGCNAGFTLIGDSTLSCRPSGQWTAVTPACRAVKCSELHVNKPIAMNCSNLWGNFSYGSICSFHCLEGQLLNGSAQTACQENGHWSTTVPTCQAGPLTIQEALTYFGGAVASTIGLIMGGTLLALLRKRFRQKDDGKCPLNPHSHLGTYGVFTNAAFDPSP

T2: recombinant human P-selectin (R&D Systems) (human, UniProt P16109 42-771)
T2 construct: extracellular domain; also called recombinant soluble P-selectin; recombinant P-selectin
T2 sequence (looked up): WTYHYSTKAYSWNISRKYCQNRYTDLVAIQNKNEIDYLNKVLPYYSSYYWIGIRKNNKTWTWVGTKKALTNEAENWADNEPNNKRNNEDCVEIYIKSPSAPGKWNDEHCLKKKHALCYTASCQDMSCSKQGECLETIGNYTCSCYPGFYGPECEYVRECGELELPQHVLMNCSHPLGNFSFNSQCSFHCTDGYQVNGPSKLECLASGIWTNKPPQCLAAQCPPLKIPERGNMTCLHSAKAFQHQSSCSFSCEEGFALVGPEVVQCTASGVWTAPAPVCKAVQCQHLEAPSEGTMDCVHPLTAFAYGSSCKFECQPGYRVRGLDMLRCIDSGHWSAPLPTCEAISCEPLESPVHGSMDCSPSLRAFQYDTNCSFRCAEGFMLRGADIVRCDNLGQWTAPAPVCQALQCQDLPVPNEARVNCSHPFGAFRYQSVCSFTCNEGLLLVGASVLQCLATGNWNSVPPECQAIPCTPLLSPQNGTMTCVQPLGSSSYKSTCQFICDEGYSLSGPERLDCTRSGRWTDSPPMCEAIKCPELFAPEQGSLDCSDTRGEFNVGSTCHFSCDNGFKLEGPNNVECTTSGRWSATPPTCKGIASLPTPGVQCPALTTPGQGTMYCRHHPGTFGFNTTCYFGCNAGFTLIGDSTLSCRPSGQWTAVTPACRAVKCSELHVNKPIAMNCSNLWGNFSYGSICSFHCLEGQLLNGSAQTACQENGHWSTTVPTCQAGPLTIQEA

B1: SZ51, murine anti-P-selectin monoclonal antibody (antibody, V domains shown)
VH: QVQLLESGPELKKPGETVKISCKASGYTFTNYGMNWVKQAPGKGLKWMGWINTYTGEPIYADDFKGRFAFSLETSASTAHLQINSLKNEDMATYFCARGRGGNAMDYWGQGTSVTVSS
VL: ELQMTQSPSSLSASVGDRVTISCSASQDISNYLNWYQQKPDGPVKLLIYYTTSNLHSGVPSRFSGSGSGTDYSLTISNLEPEDIATYYCQQYNKVPWTFGGGTKLEIKR
notes: Variable region DNA in GenBank gi:4099282 (heavy) and gi:4099284 (light); also called parental monoclonal antibody SZ51; anti-P-selectin mouse monoclonal antibody
B2: HuSZ51, chimeric mouse-human anti-P-selectin monoclonal antibody (antibody, human IgG1, V domains shown)
VH: QVQLLESGPELKKPGETVKISCKASGYTFTNYGMNWVKQAPGKGLKWMGWINTYTGEPIYADDFKGRFAFSLETSASTAHLQINSLKNEDMATYFCARGRGGNAMDYWGQGTSVTVSS
VL: ELQMTQSPSSLSASVGDRVTISCSASQDISNYLNWYQQKPDGPVKLLIYYTTSNLHSGVPSRFSGSGSGTDYSLTISNLEPEDIATYYCQQYNKVPWTFGGGTKLEIKR

How the values were obtained:
[1] = target: T1, P-selectin on thrombin-activated human …; assay: ELISA on plate-coated thrombin-activated human platelets
Procedure: The ability of purified HuSZ51-DSPAalpha1 to bind specifically to human or dog thrombin-activated platelets in vitro was investigated by ELISA. 96-Well plates were coated with a 100 μl solution containing 1×10⁶ thrombin-activated human or dog platelets per well and incubated overnight at 4° C. The coated plates were washed once with washing solution (PBS, pH 7.4 plus 0.05% Tween-20), and then incubated with 200 μl blocking solution (5% milk prepared in PBS) per well at 37° C. for 2 hours. The blocked plates were washed 3 times with washing solution, and then incubated with 100 μl washing solution containing various amounts of HuSZ51-DSPAalpha1, SZ51, or human IgG1 for 1 hour at 37° C. The plates were washed 3 times with washing solution, and then incubated with peroxidase-conjugated protein L (Pierce) for 1 hour at 37° C. The plates were washed 4 times with washing solution, and then incubated with 100 μl of TMB/E substrate (ZYMED) for 5 minutes at room temperature. The perioxidase reactions were stopped by the addition of 100 μl 1 N HCl, and the plates were read for absorbance at 450 nm within 5 minutes.

[2] = target: T2, recombinant human P-selectin (R&D …); assay: recombinant soluble P-selectin (0-40 ng) after SDS-PAGE on nitrocellulose, detection with HRP goat anti-human Fc
Procedure: 1. Binding of HuSZ51-DSPAalpha1 to P-selectin on a nitrocellulose membrane. The indicated amounts of recombinant soluble P-selectin (R&D systems), 0, 5, 10, 20, or 40 ng, along with 10 ng of human IgG1, were separated on SDS-PAGE gels and then transferred onto nitrocellulose membranes. One membrane was incubated with HuSZ51, and the second was incubated with HuSZ51-DSPAalpha1. After washing, bound HuSZ51 or HuSZ51-DSPAalpha1 was detected by HRP-conjugated goat anti-human Fc. The intensity of human IgG1 lane, which is also detected by HRP-conjugated goat anti-human Fc was used as a normalization control.

| Binder | binding result [1] | binding result [2] |
| --- | --- | --- |
| B1 | binds | – |
| B2 | – | binds |
